Reference: patent publication US20210140973A1 (NITTO BOSEKI, published 2021)

Legend:
Experiment in all cases: latex agglutination inhibition; 3000 mg/dL myeloma protein as free sample against IgG4-sensitized latex, read on the IgG4 calibration curve
[1] = target: T1, Myeloma human IgG4 (EMD Millipore) (human)
T1 construct: Bought myeloma protein
Method: (§1) In a case where the MaI4-08-produced antibody or the MaI4-09-produced antibody was used as an anti-human IgG4 mouse monoclonal antibody in the first reagent, specificity to human IgG4 was evaluated. As a sample, Myeloma human IgG4 solution (EMD Millipore) adjusted to 3000 mg/dL was used. In addition, as control samples, Myeloma human IgG1 solution (EMD Millipore), Myeloma human IgG2 solution (EMD Millipore), and Myeloma human IgG3 solution (Sigma-Aldrich Co. LLC) prepared similarly to the above were used. A saline solution was used as a blank sample. For the measurement of human IgG4 concentrations, 120 μL of the first reagent and 120 μL of the second reagent were reacted with 3 μL of a sample using Hitachi type 7180 automatic analyzer, and change amount of absorbance in the range of photometric points of 18 to 28 (corresponding to 1 minute to 4 minutes after addition of R2) was measured at a main wavelength of 570 nm and a complementary wavelength of 800 nm by a two-point end method (n=2). A calibration curve was created from the results of Table 8 and the human IgG4 concentration in a sample was calculated therefrom.

[2] = target: T2, Myeloma human IgG1 (EMD Millipore) (human)
T2 construct: Bought myeloma protein
Method: as §1

[3] = target: T3, Myeloma human IgG2 (EMD Millipore) (human)
T3 construct: Bought myeloma protein
Method: as §1

[4] = target: T4, Myeloma human IgG3 (Sigma-Aldrich Co. LLC) (human)
T4 construct: Bought myeloma protein
Method: as §1

T4 sequence (constant, as listed by the source limits assumed): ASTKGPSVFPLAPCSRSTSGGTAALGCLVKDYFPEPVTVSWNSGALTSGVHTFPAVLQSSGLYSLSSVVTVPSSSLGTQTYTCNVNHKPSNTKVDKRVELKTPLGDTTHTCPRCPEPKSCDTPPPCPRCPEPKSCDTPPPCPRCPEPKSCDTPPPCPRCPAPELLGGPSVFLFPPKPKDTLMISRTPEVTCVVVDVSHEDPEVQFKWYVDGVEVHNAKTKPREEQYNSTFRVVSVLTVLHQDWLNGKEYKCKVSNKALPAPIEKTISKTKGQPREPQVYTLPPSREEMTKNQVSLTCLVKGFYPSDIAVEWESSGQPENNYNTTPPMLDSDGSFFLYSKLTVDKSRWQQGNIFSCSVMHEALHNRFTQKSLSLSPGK
T3 sequence (constant, as listed by the source limits assumed): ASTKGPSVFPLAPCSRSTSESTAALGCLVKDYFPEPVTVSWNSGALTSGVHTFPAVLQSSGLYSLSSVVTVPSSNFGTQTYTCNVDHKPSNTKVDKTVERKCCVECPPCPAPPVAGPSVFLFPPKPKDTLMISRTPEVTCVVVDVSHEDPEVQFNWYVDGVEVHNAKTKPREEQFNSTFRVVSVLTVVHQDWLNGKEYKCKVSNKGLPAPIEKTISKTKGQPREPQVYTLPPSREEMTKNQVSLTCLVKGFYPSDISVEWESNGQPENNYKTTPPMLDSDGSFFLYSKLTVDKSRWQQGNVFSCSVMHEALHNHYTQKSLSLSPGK
T2 sequence (constant, as listed by the source limits assumed): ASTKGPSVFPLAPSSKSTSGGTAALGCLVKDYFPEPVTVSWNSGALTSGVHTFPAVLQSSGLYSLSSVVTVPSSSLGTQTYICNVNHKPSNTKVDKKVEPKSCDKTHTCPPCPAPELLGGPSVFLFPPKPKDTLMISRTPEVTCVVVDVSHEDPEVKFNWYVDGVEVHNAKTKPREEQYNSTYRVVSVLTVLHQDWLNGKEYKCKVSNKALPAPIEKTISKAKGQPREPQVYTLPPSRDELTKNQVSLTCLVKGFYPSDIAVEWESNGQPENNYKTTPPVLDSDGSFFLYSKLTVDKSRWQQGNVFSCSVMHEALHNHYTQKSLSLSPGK
T1 sequence (constant, as listed by the source limits assumed): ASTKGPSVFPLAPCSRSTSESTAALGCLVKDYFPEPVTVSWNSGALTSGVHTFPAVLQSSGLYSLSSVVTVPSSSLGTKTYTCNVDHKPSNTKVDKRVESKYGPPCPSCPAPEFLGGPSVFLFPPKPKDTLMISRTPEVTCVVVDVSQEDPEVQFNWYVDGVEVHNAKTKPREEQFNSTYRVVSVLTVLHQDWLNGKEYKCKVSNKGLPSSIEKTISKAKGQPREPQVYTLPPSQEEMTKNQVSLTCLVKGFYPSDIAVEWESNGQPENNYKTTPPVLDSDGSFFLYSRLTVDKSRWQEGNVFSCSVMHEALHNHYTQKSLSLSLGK

B1: MaI4-08-produced antibody (antibody, IgG1, V domains shown)
VH: EVQLQQSGPELVKPGTSVKMSCKASGYIFTSYILHWVKQKPGQGLEWIAYINPYNDGTKYKEKFKGKGTLTSDKSSSTAYMELSSLTSEDSAVYYCARSGGGYGNYAWFAYWGPGTLVTVST
VL: DIQMTQSPSSLSASLGERVSLTCRASQDIGSSLNWLQQEPDGTIKRLIYATSSLDSGVPKRFSGSRSGSDYSLTISSLESEDFVDYYCLQYASYPPTFGAGTKLELK
notes: Purified on protein G from hybridoma culture supernatant; POD-labelled for the Western blots
[1]
  Measured value (apparent human IgG4 concentration): 1090 mg/dL
[2]
  Measured value (apparent human IgG4 concentration): 10.1 mg/dL
[3]
  Measured value (apparent human IgG4 concentration): 12.8 mg/dL
[4]
  Measured value (apparent human IgG4 concentration): 4.1 mg/dL
